Assay results taken from the supplement of paper PMC10266784.

B1: library; numbered along this chain (parent)
chain: MAAAAAAAAEQQSSNGPVKKSMREKAVERRSVNKEHNSNFKAGYIPIDEDRLHKTGLRGRKGNLAICVIILLFILAVINLIITLVIWAVIRIGPNGCDSMEFHESGLLRFKQVSDMGVIHPLYKSTVGGRRNENLVITGNNQPIVFQQGTTKLSVENNKTSITSDIGMQFFDPRTQNILFSTDYETHEFHLPSGVKSLNVQKASTERITSNATSDLNIKVDGRAIVRGNEGVFIMGKTIEFHMGGNMELKAENSIILNGSVMVSTTRLPSSSSGDQLGSGDWVRYKLCMCADGTLFKVQVTSQNMGCQISDNPCGNTH

Variants of: B1
Assay: SGCB cell-surface expression functional score (HA stain, bin4 vs bin1, normalised to synonymous) (log10 ratio); higher = more cell-surface SGCB (functional)
Procedure: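 Deep mutational scan of full-length human SGCB (YFP-SGCB-HA, NNN codon sublibraries A-F) delivered by lentivirus at low MOI into ADG-HEK293 cells stably expressing SGCA, SGCD and SGCG. YFP-positive cells were stained for surface HA on unpermeabilized cells and FACS-sorted into bins. The functional score is log10(frequency in high bin 4 / frequency in low bin 1), normalised per chunk so that synonymous variants have mean 0 and SD 0.5. Scores are the median over codons and over duplicate biological replicates; scores below -0.5 are called non-functional. Scale: negative means deleterious.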

SGCB cell-surface expression functional score (log10), by site and new letter:
L71: E 0.1; T 0.07; C -0.37; A 0.26; P -0.04; M 0.01; V 0.22; D -0.08; N 0.19; I -0.45; G 0.23; Q 0.12; F -0.14; R -0.37; W 0.61; H 0.06; Y -0.5; S 0.06; K 0.36
L57: W 0.44; I 0.49; C 0.07; E 0.04; K 0.32; Q -0.03; D -0.4; N 0.02; R 0.07; A 0.45; M 0.09; H -0.36; S 0.11; V 0.2; P -0.03; F 0.06; Y 0.49; T 0.18; G 0.28
I69: S 0.09; M 0.22; E 0.15; H 0.03; C 0.05; Y 0.41; D -0.11; V -0.05; G 0.2; W 0.3; F 0.52; K -0.04; A -0.17; N 0.62; R 0.11; T -0.01; L 0.2; P 0.36; Q 0.03
T55: Y 0.15; S 0.22; W -0.27; V -0.07
F73: K 0.54; G 0.22; C 0.34; A 0.13; I -0.11; E 0.42; H 0.54; D 0.36; L 0.03
G62: P 0.36; N -0.29; A 0.02; Q 0.34; M 0.13; W -0.11; H 0.18; Y -0.05; L 0.53; F 0.5; K -0.29; D 0.29; T -0.09; E 0.11; I 0.26; C 0.33; R 0.23; V -0.21; S 0.18
G59: S -0.13; C 0.05; H 0.1; A -0.59; K 0.12; L 0.09; P 0.12; F 0.13; I -0.01; Y 0.17; M 0.31; N 0; V 0.33; E -0.2; R -0.17; T 0.25; D 0.04; Q -0.24
C67: M -0.01; K 0.29; W 0.43; H 0.38; Y 0.04; P 0.26; T -0.03; Q 0.4; E 0.39; D 0.11; G 0.18; F -0.08; N 0.19; V 0.28; L 0.25; S 0.04; R 0.08; A 0.57; I 0.33
L72: I 0.41; H -0.05; Y -0.04; S -0.07; N -0.44; G 0.44; D -0.14; W 0.28; P -0.11; F 0.07; M 0.13; V 0.27; A -0.23; Q -0.21; C 0.42; T 0.45; R -0.09; E -0.02; K -0.18
K61: W 0.05; N -0.39; F 0.7; A -0.12; I 0.48; S 0.07; G 0.03; T 0.03; M -0.03; C 0.35; Y 0.64; V 0.07; R -0.23; E -0.08; D -0.36; P -0.2; H -0.27; L 0.26; Q -0.08
N63: S -0.25; W 0.22; E -0.28; A -0.08; G 0.13; D -0.06; C -0.16; L 0.03; F 0.08; H 0.28; P 0.32; T 0.43; M -0.11; R 0.07; I -0.14; Y 0.25; Q 0.11; K 0.24; V -0.44
V68: M -0.35; P 0; K 0; G 0.24; F 0.55; I 0.05; D -0.25; N 0.03; L -0.04; H -0.35; E -0.1; W 0.12; C 0.91; T 0.29; Y -0.25; R 0.06; A -0.01; Q -0.15; S 0.36
A65: Y 0.12; C 0.32; R -0.07; L 0.15; F 0.21; D 0.08; W 0.48; G -0.03; I 0.15; S 0.01; P -0.28; H -0.17; E -0.2; N 0.06; Q -0.13; T -0.01; V 0.3; K 0.51; M -0.02
I70: Y -0.14; Q 0.06; H -0.21; S 0.36; D -0.14; P 0.16; R -0.16; T -0.22; W 1.07; K 0.19; A 0.41; V 0.53; F -0.2; M 0.77; C -0.3; L -0.1; E -0.22; G 0.35; N 0.07
I66: A -0.11; M 0.3; N 0.47; K 0.5; E 0.12; T 0.03; L -0.78; G 0; S 0.07; D 0; R 0.43; C 0.65; Y 0.29; F -0.03; Q -0.15; V 0.2; H -0.2; W 0.01; P -0.35
R60: G -0.33; Q 0.38; K 0.08; T 0.01; L 0.11; W -0.101; D 0.39; P -0.19; A -0.28; Y -0.12; C 0.47; V -0.09; E 0.4; N 0.1; I 0.5; S 0.18; F -0.05; H -0.21
L64: G -0.2; A -0.31; K 0.15; F 0.43; Y 0.16; H 0.16; E -0.26; P -0.26; W -0.254; M -1.4; Q 0.03; I -0.1; N 0.28; D -0.4; V 0.25; S 0.31; T 0.11; C 0.26; R 0.07
R58: M -0.15; N 0.17; C -0.55; S -0.22; W -0.26; H 0.19; P 0.27; L 0; D 0.21; K -0.66; T 0.24; V -0.04; I 0.13; Y 0.71; A 0.08; G 0; E -0.08; Q -0.12; F 0.09
G56: V 0.05; H 0.15; N -0.1; K 0.41; Q -0.39; T 0.4; R 0.14; D -0.5; W -0.16; C -0.17; I 0.26; F 0.28; P 0.22; L 0.23; Y 0.34; S 0.21; A 0.21; E -0.3; M -0.31
